± gives the standard error. For some assays here: Fewer inactive variants are shown than the library holds.
B1: glmS ribozyme (parent)
chain: AUAAAAGCGCCAGAACUACAGAAAUGUAGUUGACGAGGAGGAGGUUUAUCGAAUUUUCGGCGGAUGCCUCCAAA

Experiments:
Settings in all cases: with glucosamine-6-phosphate
glucosamine-6-phosphate [1] = variants of: B1; assay: kcat; higher = faster cleavage; RNA array
Procedure, shortened: (§1)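 Using a hybridised Cy3 probe at 37 °C, barcoded ribozyme variants transcribed in situ by E. coli RNA polymerase on sequenced MiSeq chips were monitored across tiles imaged over ~14 h. The flow contained glucosamine-6-phosphate from 40 μM to 10 mM in HEPES/KCl/Mg(OAc)2 buffer. Signals were normalised to baseline and to non-cleaving reference variants before per-tile medians were fit to one- or two-exponential decays to yield kobs. Weighted Michaelis–Menten fits across concentrations gave kcat and KM.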

glucosamine-6-phosphate [2] = variants of: B1; assay: KM; higher = weaker cofactor use; RNA array
Procedure, shortened: as §1

glucosamine-6-phosphate [3] = variants of: B1; assay: self-cleavage kobs at 40 uM GlcN6P; higher = faster cleavage; RNA array
Procedure, shortened: as §1

glucosamine-6-phosphate [4] = variants of: B1; assay: self-cleavage kobs at 160 uM GlcN6P; higher = faster cleavage; RNA array
Procedure, shortened: as §1

glucosamine-6-phosphate [5] = variants of: B1; assay: self-cleavage kobs at 640 uM GlcN6P; higher = faster cleavage; RNA array
Procedure, shortened: as §1

glucosamine-6-phosphate [6] = variants of: B1; assay: self-cleavage kobs at 2500 uM GlcN6P; higher = faster cleavage; RNA array
Procedure, shortened: as §1

glucosamine-6-phosphate [7] = variants of: B1; assay: self-cleavage kobs at 10000 uM GlcN6P; higher = faster cleavage; RNA array
Procedure, shortened: as §1

Row | Variant | kcat (glucosamine-6-phosphate [1]) [s⁻¹] | KM (glucosamine-6-phosphate [2]) [µM] | self-cleavage kobs at 40 uM GlcN6P (glucosamine-6-phosphate [3]) [s⁻¹] | self-cleavage kobs at 160 uM GlcN6P (glucosamine-6-phosphate [4]) [s⁻¹] | self-cleavage kobs at 640 uM GlcN6P (glucosamine-6-phosphate [5]) [s⁻¹] | self-cleavage kobs at 2500 uM GlcN6P (glucosamine-6-phosphate [6]) [s⁻¹] | self-cleavage kobs at 10000 uM GlcN6P (glucosamine-6-phosphate [7]) [s⁻¹]
1 | A15G U56A | 0.00941 ± 0.0033 | 1700 ± 790 | 0.000313 ± 3.4e-05 | 0.000554 ± 9.9e-05 | 0.00267 ± 0.00031 | 0.00536 ± 0.0015 | 0.00825 ± 0.0011
2 | A15G U47C | 0.0057 ± 0.00076 | 1660 ± 350 | 0.000151 ± 3.2e-05 | 0.000348 ± 0.00016 | 0.00164 ± 0.0005 | 0.00388 ± 0.00099 | 0.00476 ± 0.00083
3 | A15G U65C | 0.000964 ± 0.00027 |  |  | 7.34e-05 ± 2.9e-05 | 0.00026 ± 5e-05 | 0.000852 ± 0.00013 | 0.000673 ± 0.00014
4 | C16A A42G | 0.00215 ± 0.00056 | 2550 ± 900 | 3.27e-05 ± 1.1e-05 | 0.000111 ± 2.3e-05 | 0.00062 ± 0.00012 | 0.00103 ± 0.0002 | 0.00165 ± 0.00043
5 | C16A | 0.00334 ± 0.00087 | 2630 ± 840 | 6.14e-05 ± 1.3e-06 | 0.000152 ± 5e-06 | 0.000602 ± 3.1e-05 | 0.0017 ± 7.8e-05 | 0.00269 ± 8.5e-05
6 | A14U A52G | 0.00038 ± 0.0001 | 2840 ± 1300 |  | 5.44e-05 ± 1.7e-05 | 7.16e-05 ± 1e-05 | 0.000166 ± 1.6e-05 | 0.000325 ± 4.4e-05
7 | A14U A52U | 0.000167 ± 2.7e-06 | 2930 ± 110 |  |  | 3.02e-05 ± 7.3e-06 | 7.62e-05 ± 7.8e-06 | 0.000129 ± 1e-05
8 | C16A C71G | 6.32e-05 ± 9.8e-06 |  |  | 3.88e-05 ± 1.5e-05 | 7.21e-05 ± 1.7e-05 | 9.36e-05 ± 1.5e-05 | 5.48e-05 ± 6.9e-06
9 | C16A G63C | < 1e-05 |  |  | < 1e-05 |  |  | 
10 | A15C G29U | 0.00341 ± 0.00015 | 2200 ± 140 | 6.18e-05 ± 8.8e-06 |  | 0.000757 ± 0.00012 | 0.00169 ± 0.00042 | 0.00285 ± 0.00042
11 | C16A A52G | 0.000129 ± 7.4e-06 | 730 ± 180 |  |  | 6.18e-05 ± 2.3e-05 | 0.000102 ± 1.9e-05 | 0.000118 ± 1.9e-05
12 | A14U U54A | 0.00906 ± 0.0023 | 1560 ± 560 | 0.000324 ± 5.9e-05 | 0.000834 ± 0.00014 | 0.00228 ± 0.00033 | 0.00565 ± 0.00092 | 0.00909 ± 0.002
13 | C16A A53C | 0.000269 ± 1.8e-05 | 1770 ± 270 |  | 3.05e-05 ± 1.2e-05 | 6.66e-05 ± 1.2e-05 | 0.000164 ± 2.3e-05 | 0.000226 ± 2.5e-05
14 | A15G G62C U69G | 1.74e-05 ± 5.1e-06 |  |  |  |  |  | 
15 | A15C U31C | 0.00282 ± 0.00061 | 3830 ± 1200 | 4.49e-05 ± 9.1e-06 | 0.000136 ± 3e-05 | 0.000359 ± 4.3e-05 | 0.00104 ± 0.00023 | 0.00211 ± 0.00024
16 | A15U G40C | 0.000282 ± 2.6e-05 | 1070 ± 230 |  | 3.7e-05 ± 1.5e-05 | 0.00011 ± 1.4e-05 | 0.000162 ± 3.3e-05 | 0.000269 ± 3e-05
17 | A15U G40A | 0.000675 ± 9.5e-05 | 912 ± 230 | 4.43e-05 ± 1.2e-05 | 8.75e-05 ± 1.8e-05 | 0.000282 ± 4.7e-05 | 0.000515 ± 0.0001 | 0.000611 ± 0.0001
18 | A15C A48U | 5.55e-05 ± 7.9e-06 | 2840 ± 1100 | < 1e-05 |  |  | 2.83e-05 ± 1.2e-05 | 4.26e-05 ± 1.2e-05
19 | A14U U54C C67U | 0.00203 ± 0.00034 | 1680 ± 410 | 5.21e-05 ± 1.9e-05 | 0.000164 ± 2.3e-05 | 0.000887 ± 0.00023 | 0.00131 ± 0.00025 | 0.00163 ± 0.0003
20 | A15U G66A | 0.00705 ± 0.002 | 7800 ± 2800 | 4.82e-05 ± 1.6e-05 | 0.000124 ± 2.4e-05 | 0.000781 ± 0.00023 | 0.00183 ± 0.00057 | 0.00391 ± 0.00065
21 | C16A G51A | < 1e-05 | 632 ± 220 |  |  |  |  | < 1e-05
22 | A15U U54A | 0.00741 ± 0.001 | 1360 ± 360 |  | 0.00059 ± 0.00026 | 0.00262 ± 0.00048 | 0.00516 ± 0.0014 | 0.00623 ± 0.0012
23 | A15C U55C | 0.00633 ± 0.0012 | 2200 ± 580 | 0.000138 ± 2e-05 | 0.000383 ± 7.4e-05 | 0.00121 ± 0.00034 | 0.00302 ± 0.00052 | 0.00573 ± 0.00087
24 | A15U C70G | 7.6e-05 ± 6.8e-06 | 175 ± 85 |  | 4.66e-05 ± 1.1e-05 | 5.16e-05 ± 7.6e-06 | 7.05e-05 ± 8.4e-06 | 8.19e-05 ± 9.8e-06
25 | C16A C70G | 4.18e-05 ± 5e-06 |  |  |  | 3.86e-05 ± 1.5e-05 | 5.28e-05 ± 1e-05 | 3.56e-05 ± 7.5e-06
26 | A15U G32A | 0.00116 ± 0.00015 | 4440 ± 850 |  |  | 0.000153 ± 2.9e-05 | 0.000388 ± 9.4e-05 | 0.00082 ± 0.00016
27 | A15G C58G | 0.00042 ± 0.00013 |  |  |  |  | 8.41e-05 ± 1.3e-05 | 0.000197 ± 6.1e-05

Source: the supplement of paper PMC7125110
